Results taken from paper PMC10144703, “Molecular Mechanism of Sirtuin 1 Inhibition by Human Immunodeficiency Virus 1 Tat Protein” (Life, 2023).
Where no end group is shown, it is not given here.

Biological target: human mini-Sirt1 (aa 183-505-(GGGS)2-641-665) (human) (UniProt Q96EB6)
Sequence (Q96EB6 other isoform, or with tags, fused parts or gaps): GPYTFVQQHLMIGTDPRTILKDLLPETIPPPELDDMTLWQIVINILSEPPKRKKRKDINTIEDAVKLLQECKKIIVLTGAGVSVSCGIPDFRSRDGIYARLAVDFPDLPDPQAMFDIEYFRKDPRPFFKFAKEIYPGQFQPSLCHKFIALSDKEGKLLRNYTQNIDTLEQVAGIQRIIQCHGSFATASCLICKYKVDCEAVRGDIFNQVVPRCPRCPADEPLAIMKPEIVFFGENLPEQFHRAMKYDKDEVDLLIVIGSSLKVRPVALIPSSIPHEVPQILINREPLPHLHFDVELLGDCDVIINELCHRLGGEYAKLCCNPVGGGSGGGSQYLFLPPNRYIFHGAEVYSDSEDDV

## SYGRKKRRQ (not fully specified) [Tat-46–54 (non-acetylated)]
  inhibition of mini-Sirt1 in the FdL assay; IC50: 131 µM
